System: Escherichia coli TOP10
Assay: shrunken log2 fold change of peptide-encoding DNA abundance (4.5 h post-induction vs induction); higher = less antimicrobial activity (less host growth inhibition)
Settings: time post-induction: 4.5 h; library: site-saturation at positions 5, 18, 19, 20
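Note: peptides expressed intracellularly from a pBAD plasmid library in pooled LB shake-flask culture, induced with 0.3% L-arabinose, DNA abundance read by NGS, three biological replicates, DESeq2 with apeglm shrinkage.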

Row | Sequence | shrunken log2 fold change
1 | RRIRGRPPRLPRPRPRPYQKPRP | -0.00887
2 | RRIRHRPPRLPRPRPRPSDDPRP | -0.0349
3 | RRIRWRPPRLPRPRPRPIYEPRP | -0.355
4 | RRIRGRPPRLPRPRPRPWIQPRP | 0.0532
5 | RRIRPRPPRLPRPRPRPDRCPRP | 0.584
6 | RRIRARPPRLPRPRPRPRQPPRP | 0.75
7 | RRIRHRPPRLPRPRPRPWWTPRP | 0.00261
8 | RRIRYRPPRLPRPRPRPARFPRP | 0.181
9 | RRIRNRPPRLPRPRPRPWKVPRP | -1.21
10 | RRIRLRPPRLPRPRPRPGFGPRP | 0.189
11 | RRIRQRPPRLPRPRPRPGKCPRP | 0.0125
12 | RRIRHRPPRLPRPRPRPNEIPRP | -0.21
13 | RRIRDRPPRLPRPRPRPCQHPRP | -0.276
14 | RRIRARPPRLPRPRPRPAFMPRP | 0.525
15 | RRIRQRPPRLPRPRPRPPWLPRP | 0.307
16 | RRIRNRPPRLPRPRPRPRDMPRP | -0.121
17 | RRIRERPPRLPRPRPRPVCEPRP | 0.162
18 | RRIRDRPPRLPRPRPRPLYWPRP | -0.112
19 | RRIRNRPPRLPRPRPRPFSRPRP | -0.000753
20 | RRIRVRPPRLPRPRPRPTDKPRP | -0.0288
21 | RRIRFRPPRLPRPRPRPWNIPRP | -0.0965
22 | RRIRFRPPRLPRPRPRPHHHPRP | -0.678
23 | RRIRERPPRLPRPRPRPFCFPRP | -0.106
24 | RRIRFRPPRLPRPRPRPGWPPRP | 0.489
25 | RRIRVRPPRLPRPRPRPYSTPRP | -0.00968

Row | Sequence | shrunken log2 fold change
26 | RRIRHRPPRLPRPRPRPDLCPRP | 0.00487
27 | RRIRTRPPRLPRPRPRPPACPRP | 0.313
28 | RRIRDRPPRLPRPRPRPCGFPRP | -0.0017
29 | RRIRDRPPRLPRPRPRPKWVPRP | 0.538
30 | RRIRYRPPRLPRPRPRPKYIPRP | -0.665
31 | RRIRSRPPRLPRPRPRPLERPRP | -0.0196
32 | RRIRTRPPRLPRPRPRPLKCPRP | -0.249
33 | RRIRCRPPRLPRPRPRPHFSPRP | -0.473
34 | RRIRGRPPRLPRPRPRPRIRPRP | 0.211
35 | RRIRLRPPRLPRPRPRPYSNPRP | -0.212
36 | RRIRVRPPRLPRPRPRPAVIPRP | -0.0266
37 | RRIRKRPPRLPRPRPRPGEQPRP | -0.0435
38 | RRIRRRPPRLPRPRPRPKNYPRP | -0.177
39 | RRIRSRPPRLPRPRPRPYPTPRP | -0.234
40 | RRIRKRPPRLPRPRPRPNILPRP | -0.193
41 | RRIRARPPRLPRPRPRPADVPRP | 0.118
42 | RRIRDRPPRLPRPRPRPVYNPRP | -0.00379
43 | RRIRKRPPRLPRPRPRPFHIPRP | -0.025
44 | RRIRIRPPRLPRPRPRPIYRPRP | -0.191
45 | RRIRERPPRLPRPRPRPVNVPRP | -0.531
46 | RRIRPRPPRLPRPRPRPYNIPRP | -1.66
47 | RRIRSRPPRLPRPRPRPMGGPRP | 0.334
48 | RRIRNRPPRLPRPRPRPLNHPRP | -0.286
49 | RRIRKRPPRLPRPRPRPMLIPRP | 0.0347
50 | RRIRDRPPRLPRPRPRPNSHPRP | 0.0526

Row | Sequence | shrunken log2 fold change
51 | RRIRARPPRLPRPRPRPDWIPRP | -0.0382
52 | RRIRERPPRLPRPRPRPMYEPRP | -0.00246
53 | RRIRQRPPRLPRPRPRPNSKPRP | -0.429
54 | RRIRCRPPRLPRPRPRPSFQPRP | -0.384
55 | RRIRPRPPRLPRPRPRPYTDPRP | -0.562
56 | RRIRCRPPRLPRPRPRPTWNPRP | 0.128
57 | RRIRCRPPRLPRPRPRPWQMPRP | -0.0748
58 | RRIRDRPPRLPRPRPRPTGRPRP | 0.134
59 | RRIRLRPPRLPRPRPRPIPYPRP | -0.401
60 | RRIRCRPPRLPRPRPRPPCRPRP | 0.609
61 | RRIRGRPPRLPRPRPRPQSTPRP | 0.649
62 | RRIRIRPPRLPRPRPRPTNPPRP | -0.454
63 | RRIRMRPPRLPRPRPRPVWTPRP | 0.386
64 | RRIRNRPPRLPRPRPRPMRLPRP | 0.286
65 | RRIRPRPPRLPRPRPRPFFRPRP | -0.0565
66 | RRIRWRPPRLPRPRPRPHMYPRP | -0.443
67 | RRIRDRPPRLPRPRPRPFHWPRP | -0.0944
68 | RRIRGRPPRLPRPRPRPSNWPRP | 1.12
69 | RRIRHRPPRLPRPRPRPKFGPRP | 0.0962
70 | RRIRDRPPRLPRPRPRPLEHPRP | -0.164
71 | RRIRPRPPRLPRPRPRPELNPRP | 0.117
72 | RRIRDRPPRLPRPRPRPEKGPRP | 0.71
73 | RRIRKRPPRLPRPRPRPGDAPRP | 0.571
74 | RRIRARPPRLPRPRPRPSRGPRP | 0.497
75 | RRIRMRPPRLPRPRPRPGHIPRP | 0.0817

Row | Sequence | shrunken log2 fold change
76 | RRIRIRPPRLPRPRPRPFREPRP | -0.0279
77 | RRIRLRPPRLPRPRPRPGHDPRP | 0.147
78 | RRIRMRPPRLPRPRPRPQESPRP | 0.55
79 | RRIRERPPRLPRPRPRPNHFPRP | -0.799
80 | RRIRLRPPRLPRPRPRPFSAPRP | -0.177
81 | RRIRARPPRLPRPRPRPIQGPRP | 0.0518
82 | RRIRCRPPRLPRPRPRPEFNPRP | -0.0266
83 | RRIRHRPPRLPRPRPRPAVWPRP | 0.261
84 | RRIRGRPPRLPRPRPRPLSSPRP | 0.598
85 | RRIRIRPPRLPRPRPRPNIQPRP | -1.03
86 | RRIRTRPPRLPRPRPRPYTHPRP | -0.338
87 | RRIRNRPPRLPRPRPRPYRQPRP | -0.01
88 | RRIRERPPRLPRPRPRPAQAPRP | 0.073
89 | RRIRRRPPRLPRPRPRPDYKPRP | -0.284
90 | RRIRGRPPRLPRPRPRPWDVPRP | -0.00788
91 | RRIRNRPPRLPRPRPRPLLEPRP | 0.0286
92 | RRIRPRPPRLPRPRPRPYSNPRP | -1.31
93 | RRIRIRPPRLPRPRPRPELGPRP | 0.0694
94 | RRIRERPPRLPRPRPRPYDMPRP | -0.222
95 | RRIRARPPRLPRPRPRPFPEPRP | 0.319
96 | RRIRLRPPRLPRPRPRPGDCPRP | 0.0644
97 | RRIRGRPPRLPRPRPRPAPCPRP | 0.426
98 | RRIRPRPPRLPRPRPRPLHIPRP | 0.656
99 | RRIRWRPPRLPRPRPRPAGRPRP | 0.695
100 | RRIRERPPRLPRPRPRPMWCPRP | 0.0762

Row | Sequence | shrunken log2 fold change
101 | RRIRVRPPRLPRPRPRPYHLPRP | -0.184
102 | RRIRQRPPRLPRPRPRPDYAPRP | -0.00674
103 | RRIRLRPPRLPRPRPRPIDMPRP | -0.184
104 | RRIRYRPPRLPRPRPRPKVLPRP | -0.04
105 | RRIRVRPPRLPRPRPRPHNRPRP | -0.241
106 | RRIRPRPPRLPRPRPRPWVGPRP | 0.0889
107 | RRIRDRPPRLPRPRPRPTFEPRP | 0.527
108 | RRIRSRPPRLPRPRPRPLEIPRP | 0.11
109 | RRIRTRPPRLPRPRPRPGNPPRP | -0.34
110 | RRIRARPPRLPRPRPRPTCMPRP | 0.407
111 | RRIRQRPPRLPRPRPRPCISPRP | -0.177
112 | RRIRLRPPRLPRPRPRPGPSPRP | 0.25
113 | RRIRIRPPRLPRPRPRPQCTPRP | -0.769
114 | RRIRMRPPRLPRPRPRPFTSPRP | -0.0967
115 | RRIRERPPRLPRPRPRPDTAPRP | -0.131
116 | RRIRKRPPRLPRPRPRPIAAPRP | 0.317
117 | RRIRTRPPRLPRPRPRPMNFPRP | -0.638
118 | RRIRRRPPRLPRPRPRPDSVPRP | 7.52e-05
119 | RRIRDRPPRLPRPRPRPSSQPRP | -0.0971
120 | RRIRRRPPRLPRPRPRPAMKPRP | 0.373
121 | RRIRNRPPRLPRPRPRPGYHPRP | -0.37
122 | RRIRYRPPRLPRPRPRPVDMPRP | -0.0154
123 | RRIRCRPPRLPRPRPRPFFWPRP | 0.359
124 | RRIRNRPPRLPRPRPRPGNFPRP | -0.0496
125 | RRIRCRPPRLPRPRPRPAFKPRP | 0.132
